Patent US20220324939A1 (Regeneron, published 2022)

T1: MAGE-A4 peptide on HLA-A*02:01 (human)
T1 peptide: KVLEHVVRV

T2: MAGE-A4 peptide on HLA-A*02:01 (human)
T2 peptide: GVYDGREHTV

B1: PN41839 (TCR, V domains shown)
V domain 1: DAKTTQPPSMDCAEGRAANLPCNHSTISGNEYVYWYRQIHSQGPQYIIHGLKNNETNEMASLIITEDRKSSTLILPHATLRDTAVYYCIVYGGSQGNLIFGKGTKLSVKP
V domain 2: DAGVTQSPTHLIKTRGQQVTLRCSPKSGHDTVSWYQQALGQGPQFIFQYYEEEERQRGNFPDRFSGHQFPNYSSELNVNALLLGDSALYLCASSFSRVQPQHFGDGTRLSIL
notes: stained with anti-mouse TCR constant region H57-597; full-length chains on transfected CHO cells; also called TCR No. 34
B2: PN41613 (TCR, V domains shown)
V domain 1: AQTVTQSQPEMSVQEAETVTLSCTYDTSESDYYLFWYKQPPSRQMILVIRQEAYKQQNATENRFSVNFQKAAKSFSLKISDSQLGDAAMYFCAYRSATGNQFYFGTGTSLTVIP
V domain 2: EAQVTQNPRYLITVTGKKLTVTCSQNMNHEYMSWYRQDPGLGLRQIYYSMNVEVTDKGDVPEGYKVSRKEKRNFPLILESPSPNQTSLYFCASSLLYSNQPQHFGDGTRLSIL
notes: stained with anti-mouse TCR constant region H57-597; full-length chains on transfected CHO cells; also called TCR No. 19
B3: PN41557 (TCR, V domains shown)
V domain 1: EDQVTQSPEALRLQEGESSSLNCSYTVSGLRGLFWYRQDPGKGPEFLFTLYSAGEEKEKERLKATLTKKESFLHITAPKPEDSATYLCAVQAVTGGGNKLTFGTGTQLKVEL
V domain 2: GAVVSQHPSWVICKSGTSVKIECRSLDFQATTMFWYRQFPKQSLMLMATSNEGSKATYEQGVEKDKFLINHASLTLSTLTVTSAHPEDSSFYICSASWDRDYGYTFGSGTRLTVV
notes: stained with anti-mouse TCR constant region H57-597; full-length chains on transfected CHO cells; also called TCR No. 11
B4: PN41539 (TCR, V domains shown)
V domain 1: AQKVTQAQTEISVVEKEDVTLDCVYETRDTTYYLFWYKQPPSGELVFLIRRNSFDEQNEISGRYSWNFQKSTSSFNFTITASQVVDSAVYFCALSEGDTGGFKTIFGAGTRLFVKA
V domain 2: NAGVTQTPKFRILKIGQSMTLQCAQDMNHNYMYWYRQDPGMGLKLIYYSVGAGITDKGEVPNGYNVSRSTTEYFPLRLELAAPSQTSVYFCASSYFPDRGLGNTIYFGEGSWLTVV
notes: stained with anti-mouse TCR constant region H57-597; full-length chains on transfected CHO cells; also called TCR No. 9
B5: PN41550 (TCR, V domains shown)
V domain 1: QKEVEQNSGPLSVPEGAIASLNCTYSDRGSQSFFWYRQYSGKSPELIMSIYSNGDKEDGRFTAQLNKASQYVSLLIRDSQPSDSATYLCAVNLSWGKFQFGAGTQVVVTP
V domain 2: DAGVTQSPTHLIKTRGQQVTLRCSPKSGHDTVSWYQQALGQGPQFIFQYYEEEERQRGNFPDRFSGHQFPNYSSELNVNALLLGDSALYLCASSLDRSTEAFFGQGTRLTVV
notes: stained with anti-mouse TCR constant region H57-597; full-length chains on transfected CHO cells; also called TCR No. 10
B6: PN41516 (TCR, V domains shown)
V domain 1: TQLLEQSPQFLSIQEGENLTVYCNSSSVFSSLQWYRQEPGEGPVLLVTVVTGGEVKKLKRLTFQFGDARKDSSLHITAAQPGDTGLYLCAGERDSWGKFQFGAGTQVVVTP
V domain 2: NAGVTQTPKFRILKIGQSMTLQCAQDMNHNYMYWYRQDPGMGLKLIYYSVGAGITDKGEVPNGYNVSRSTTEYFPLRLELAAPSQTSVYFCASSFWTGGDEKLFFGSGTQLSVL
notes: stained with anti-mouse TCR constant region H57-597; full-length chains on transfected CHO cells; also called TCR No. 4
B7: PN45584 (TCR, V domains shown)
V domain 1: AQKITQTQPGMFVQEKEAVTLDCTYDTSDPSYGLFWYKQPSSGEMIFLIYQGSYDEQNATEGRYSLNFQKARKSANLVISASQLGDSAMYFCAMREGPGSGNTGKLIFGQGTTLQVKP
V domain 2: NAGVTQTPKFRILKIGQSMTLQCAQDMNHNYMYWYRQDPGMGLKLIYYSVGAGITDKGEVPNGYNVSRSTTEYFPLRLELAAPSQTSVYFCASSYSEWQNYGYTFGSGTRLTVV
notes: stained with anti-mouse TCR constant region H57-597; full-length chains on transfected CHO cells; also called TCR No. 43

Target: T1, MAGE-A4 peptide on HLA-A*02:01
Assay: multimer staining

Row | binding result | Binder
1 | recognises | B1
2 | recognises | B2
3 | recognises | B3
4 | recognises | B4
5 | recognises | B5
6 | recognises | B6

Target: T2, MAGE-A4 peptide on HLA-A*02:01
Assay: multimer staining

Row | binding result | Binder
7 | recognises | B7

Each binder was assayed against T3, soluble HLA-A2 MAGE-A4 (…) tetramer (human) (assay: flow cytometry, HLA-A2 MAGE-A4 (…) tetramer staining of CHO cells transfected with the TCR).
T3 construct: Bought tetramer reagent; also called MAGE-A4/HLA tetramer reagent; HLA-A02:01 MAGE-A4 tetramer
Experimental: Samples were then analyzed on an LSRFortessa X-20 (BD Biosciences, San Jose, Calif.). […] However, a more stringent cutoff, such as 3%, could be used to separate out Ag+ TCRs that behave better in the binding assay. Ag+ TCRs were determined by Next Generation Sequencing.

Row | % tetramer in Ag+ gate (MAGE-A4) | Binder
8 | 69.1% | B7

What follows are binders tested against T4, soluble HLA-A2 (…) tetramer (human) (assay: flow cytometry, HLA-A2 (…) tetramer staining of CHO cells transfected with the TCR).
T4 construct: Bought tetramer reagent; also called MAGE-A4/HLA tetramer reagent; HLA-A02:01 MAGE-A4 tetramer
Experimental: Samples were then analyzed on an LSRFortessa X-20 (BD Biosciences, San Jose, Calif.).

Row | % in Ag+ gate >250 MFI, >1% | Binder
9 | 85.4% | B1
10 | 58.7% | B2
11 | 8.76% | B3
12 | 10.9% | B4
13 | 92.2% | B5
14 | 7.83% | B6
